Results reported in PMC6750725.

Target: A/equine/NY/49/73 H7N7 hemagglutinin (crystallization construct) (influenza A virus A/equine/NY/49/73 (H7N7))
Test: SEC

A/equine/NY/49/73 H7N7 hemagglutinin (crystallization construct) (natural protein)
stoichiometry N: 3
